Results as given in the nanobody polyreactivity screen of Harvey et al. (2022).

assay: yeast display, Sf9 membrane polyspecificity reagent, FACS + sequencing; frameworks hold sequencing errors
How it was run: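 Nanobodies came from a synthetic yeast display library in Saccharomyces cerevisiae BJ5465, induced with galactose for 36–48 hours and stained for 1 hour at 4 °C with 10% biotinylated, detergent-solubilized Sf9 membrane reagent. Cells were enriched on streptavidin microbeads and then FACS-sorted, with low and high (top ~1%) gates set on anti-HA fluorescence for expression and streptavidin fluorescence for reagent binding. Each polyreactivity label reflects the gate a clone came from. Genes were amplified by colony PCR, sequenced by MiSeq 2 × 250 and filtered by CDR length.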

Row | Sequence | polyreactivity (PSR sort gate)
1 | QVQLVESGGGLVQAGGSLRLSCAASGRTFYYYAMGWYRPAPGKERELVAAIRRSGSSTYYADSVKGRFTISRDNAKNTVYLQMNSLKPEDTAVYYCAAAVYQRARYYWGQGTQVTVSS | high polyreactivity
2 | QVQLVESGGGLVQAGGSLRLSSAASGFTFRRYAMGWYRQAPGKERELVAAISTSGGNTYYADSVKGRFTISRDNAKNTVYLQMNSLKPEDTAVYYCYARRKDNGHGTPFDDYWGQGTQVTVSS | high polyreactivity
3 | QVQLVESGGGLVQAGGSLLLICAASGSIFYFYTMGWYRQAPGKERELVASITYSGGRTYYADSVKWSFTMSRDNAKHTVYLQMNSLKPEDPPVDYCAVRGYRRYWGQGTQVTVSS | high polyreactivity
4 | QVQLVESGGGLVQAGGSLRLSCADSGSTFWYNAMGWYRQAPGKERELVAAITWSASRTYYADSVKGRFTISRDNAKNTVYLQMNSLKPEDTAVYYCAKASPRYKYFTGDYWGQGTQVTVSS | high polyreactivity
5 | QVQLVESGVGLVQAGGTLRLSCAASGRIFTINAMGWYRQAPGKEREFVAAISGSGGTTYYADSVKGRLTISRDNAKNTVYLQMNSLKPEDTAVYYCAVSQSWYWYYASDYWGQGTQVTVSS | low polyreactivity
6 | QVQLGESGGGLVQAGGILRLSCAASGRIFPQYAMGWYRQAPGKERELVAGITSVGSTYYADSVKGRFTISRDNAKNTVYLQMNSLKPEDTAVYFCAAVPSRYVRANRRTYRYYYWGKGTQVTVSS | high polyreactivity
7 | QVQRVDSGGGLVQAGGSLRLSCAASGSIFEWYDMVWYRQAPGTERELVAAITTGGITNYSDSVKARFTISRDNAKNTVYLQMNSLKPEDTAVYYCNADFTVEFDYWGQGTQVTVSS | low polyreactivity
8 | QVQLVESGGGLVQAGGSLRLSCAASGRTFFRYVMGWYRQAPGKERELVAAISTRGGSTYYADSVKGRFTISRDNAKNTVYLQMNSLKPEDTAVYYCAARFKVRDYSYNYWGQGTQVTVSS | high polyreactivity
9 | HVQLVESGGGLVQAGGSLRLSCAASGSTIGRYAIGWYRQAPGEERELVAAISYSGGSTYYADSVKGRFTISRDNAKNTVYIQMNSLKPEDTAAYYCAKGLSTGRAYRGYDYWGQGTQVTVSS | high polyreactivity
10 | QVQLVESRGGIVQAGGSLRLTCAASGRTFRSKVMGWYRQAQGKERELVADITYSGGNTYYADSVKGRFTISRDNAKNTDYLQMNSLKPEDNAVYYCATGWSWWTFDYWGQGTQVTVSS | high polyreactivity
11 | QVQLVESGGGLVQAGGSLRLSCAASGFTFYTNTMGWYRQAPGKERELVAVISRTGGSTYYADSVKGRFTISRDNANNTVYLQMKSLKPEDTAVYYCAKRGQWPYDYFIGNYWGQGSQVTVSS | high polyreactivity
12 | QDQLVESGVGLVQAGGSLRLSCAASGIIIYRNTLGWYRQAPGKERELVAAIRRGGNTYYADSVKGRFTISRDNAKNTVYLQMNSLKPEDSAVYYCAASAGPRASYYYWGQGTQVTVSS | high polyreactivity
13 | QLQLVESGGGLVQAGGSLRLSCAASGLIQANYAMGWYRQAPGKERELVAAISSSGGSTYSADSVKGRFSISRDNAKNTVYLQMKSLKPEDTAVYYCAAYPLYRRRWTGDYWGQGTQVTVSS | high polyreactivity
14 | QVQLVESGGGLVQAGGSLRLSCAASGRTFYSNTMGWYRQAPGKEREFVAAIPSIVGSTYYADSVKGRFTISRDNAKNTVYLQMNSLKPEDTAVYYCATRYVVIEYDYWGQGTQVTVSS | low polyreactivity
15 | EVQLVESGGGLVQSGGSLRLSSAASGSIFRYYAMGWYRQAPGKERELVAAITGSTGRTYYADSVKGRFTISRDNAKNTVYLQMNSLKPEDTAVYYCAARSRYYEYDYWGQGTQVTVSS | low polyreactivity
16 | QVQHVESGGGLVQAGGSLRLSCAASGSIFSIYAMGWYRQAPGKEREFVASITVTDGSTYYADSVKGRFTISRDNAKNTVYLQMNSLKPEDTAVYYCFAVDWYGSGSSYRGSVTYWGQGTQVTVSS | low polyreactivity
17 | QVQLVESGGGLVQAGGSLRLSCAASGFTFYWYTMGWNRQAPGKERELVAAISRRGGSTSYADSVKGRFTISRDNAKNTVYLQMNSLKPEDTAVYYCAKTPGWTDYDYWGQGTQVTVSS | high polyreactivity
18 | QVQLVESGGGLVQAGGSLRLSCAASGSTFFRYAMVWYRQAPGKERELVAAITWTGGDTYYEDSVKVRFTISRDNAMNTVYLKMNSLKPEDTAVYYCNKRLDSYYLPGFDYWGQGTQVTVSS | low polyreactivity
19 | QVQLVESGGGLVQAGGSLRLSCAASGSTFSWYAMGWYRQAPGKERELVASISFSGGDTSYADSVKGRFTISRDNAKNTVYLQMNSLKPEDTEVYYCGKEYKYETDTIFDYWGQGTQVTVSS | low polyreactivity
20 | QVQLVESGGGLVQAGGSLRLSCAASGRTFGRNAMGWYRQAPGKEREFVAAISRRGDTTYYADSVKGRFTISRDNAKNSVYLQMNSLKPEDTAVYYCNAAVIKDRFSWYYYWGQGTQVTVSS | low polyreactivity
21 | QVQLVESGGGLVQAGGSLRLSCAASGRTCIDKAMGWYRQAPGKERELVAAITKGARTYYADSVKGRFTISRDNAKNTVYLQMISLKPEDTGVYYCASVSYTQSHAYWGTGYRYGYWGQGTQVTVSS | high polyreactivity

Row | Sequence | polyreactivity (PSR sort gate)
22 | QVQLVESGGGLVQAGGSLRLSCAASGLIFASYAMGWYRQAPGKERELVAAISWSGGSTYYADSVKGRFTISRDNAKNTVYLQMNSLKPEDTAVYYCAARKLFIPKYYYWGQGTQVTVSS | high polyreactivity
23 | QVQLVESGGGLVQAGRSLRLSCAASGFTFGYYAMGWYRQAPGKERELVASISITAGSTYYADSVKGRFTISRDNAKNTVYLQMNSLTPEDTAVYYCAAKRRTRQSYYTEYYWGQGTQVTVSS | high polyreactivity
24 | QVQLVESGGGLVQAGGSLRLSCAASGFTFRWYTMGWYRQAPGKERELGAAINRGGSTYYADSVKGRFTISRDNAQNTVYLQMNSLKPEDTAVYYCAKSVSASWGRDYWGQGTQVTVSS | high polyreactivity
25 | QVQLVESGGGLVQAGGSLRLSCAASGSIFWGYAMGWYRQAPGKERELVASSTNYADSVKGRFTISRDNAKNTVYLQMNSLKPEDTAVYYCAREQGVNRNHDYWGQGTQVTVSS | low polyreactivity
26 | QVQLVESGGGLVQEGGSLPLSCAASGSIIWVYAMGWYRQPPGKERELFAAITSGVSTYYADSVKGRFTISRDNAKITVYFQFNRLKPEDSAVYDCAVVGGFRWIRMEYWGQGTQVSVSS | low polyreactivity
27 | QDQLVESGGGLVQAGGSLRLSCAASGRIFRYYAMGWYRQAPGKERELVAGMSGSGGSTYYADSVKGRFTISRDNAKNTVYLQMNSLKPEDTAVYYCAADYVRVGSLHGVYTYKKYDYWGQGTQVTVSS | high polyreactivity
28 | QVQLVESGGGLVQAGGSLRLSCAASGIIFDDYAMGWYRQAPGKERELVAAISVSGGSTYYADSVKGRFTISRDNAKNTVYLQMNSLKPEDTAVYYCAARLRQPYTRGNYWGQGTQVTVSS | high polyreactivity
29 | QVQLVESGGGLVQAGGSLRLSCAASGITFQYYAMGWYRQAPGKERELVAAISSGGSTYYADSVKGRFTISRDNAKNTVYLQMNILKPEDTAVYYCAAKRVFFGLNYDYWGQGTQVTVSS | high polyreactivity
30 | QDQLVESGGGLVQAGGSLRLSCAASGSISYYAMGWYRQAPGKERELVAAISSSGGSTYYADSVKGRFTISRDNAKNTVYLQMNSLKPEDTAVYYCAARYYGFPSKYDYWGQGTQVTVSS | high polyreactivity
31 | QVQLVESGGGLVQAGGSLRLSCAASGSTSQSNAMGWYRQAPGKERELVAAISWSGTSTYYADSVKGRFTISRDNAKNTVYLQMNSLNPEDSAVYYCAADYIFDYDYWGQGTQVTVSS | low polyreactivity
32 | QVQLVESGGGLVQAGGSLRLSCAASGSTFFDYAMGWYRQAPGKERELVAVISDGGTTTYADSVKGRFTISRDNAKNTVYLQMNSLKPVDTAVYYCAAENQDGLLVILGGYGYWGQGTQVTVSS | low polyreactivity
33 | QVQLVESGGGLVQAGGSLRLSCAASGNTLYSYAMGWYRQAPGKERELVAAITKSGGRTYYADSVKGRFTISRDNAKNTVYLQMNSLKPEDTADYYCNAVFLPTYHFDYWGQGTQVTVSS | high polyreactivity
34 | QVQLVESGGGLVQAGGSLRLSCAASGSIFYSNAMGWYRQAPGKERELVAAITLSGRRTYYADSVKGRFTISRDNAKNTVYLQMISLKPEDTADYYCATVPYKTGYKFEYWGQGTQVTVSS | high polyreactivity
35 | QVQLVESGGGLVQAGGSLRLSCAASGRILRQYAMGWYRQAPGKESELVAAISRSGASTFYADSVKGRFTISRDNAKNTVYLQMNSLKPEDTAVYYCAAEHHAFTWAAINYGSWGQGTQVTVSS | high polyreactivity
36 | QVQLVESGGVLVQAGGSLRLSCAASGSIFASNAMGWYRQAPGKEREFVAAISWSGTRTYYADSVKGRFTISRDTAKNTVYLQMNSLKPEDTAVYYCAALTVLRNDYWGLGTQVTVSS | low polyreactivity
37 | QVQLVESGGGLVQAGGRLRLSCAASGYIFSRYAMGWYRQAPGKERELVAAISKSGSSTYYADSVKGRFTISRDNAKNTVYLQMNSLKPEDTAVYYCATSYSVGYDYWGQGTQVTVSS | high polyreactivity
38 | QVQLVESGGGLVKAGGSLRLSCAASGITFSYYTMGWYRQAPGKEREFVATISQSSGSTYYADSVKGRFTISRDNAKNTVYLQMNSLKPEDTAVYYCNARRDYEWESWNVDDDYWGQGTQVTVSS | high polyreactivity
39 | QVQLVESGGGLVQAGGSLRLSCAASGRTFRFYALGWYRQAPGKEREFVAAISRSVGSTYYADSVKGRFTISRDNAKHTVYLQMNSLKPEDTAVYYCAARVFRGLGEYYWGQGTQVTVSS | high polyreactivity
40 | QVQLVESGGGLVQAGGSLRLSCAASGSIFRINAMGWYRQAPGKERELVAAISTSGGTTYYADSVKGRFTISRDNAKNTVYLQMNSLKPEDTAVYYCSARRVTSPFGSDSWGQGTQVTVSS | low polyreactivity
41 | QVQLVESGGGLVQAGGSLRLSCAASGSIFADNAMGWDRQAPGKERELVAAISRTGGSTYYADSVKGRFTISRDNSKNTVYLQMNSLKPEDTAVYYCAADNGYGRYRRYYYWGQGTQVTVSS | high polyreactivity
